The record followed here is US20240174744A1 (SCIRHOM, published 2024).

Assay [1] concerns the target T1, hiR2-FL-L539A-T7 (human iRhom2 full length L539A, 3 x T7 tag) (human, UniProt Q6PJF5 1-856).
T1 sequence: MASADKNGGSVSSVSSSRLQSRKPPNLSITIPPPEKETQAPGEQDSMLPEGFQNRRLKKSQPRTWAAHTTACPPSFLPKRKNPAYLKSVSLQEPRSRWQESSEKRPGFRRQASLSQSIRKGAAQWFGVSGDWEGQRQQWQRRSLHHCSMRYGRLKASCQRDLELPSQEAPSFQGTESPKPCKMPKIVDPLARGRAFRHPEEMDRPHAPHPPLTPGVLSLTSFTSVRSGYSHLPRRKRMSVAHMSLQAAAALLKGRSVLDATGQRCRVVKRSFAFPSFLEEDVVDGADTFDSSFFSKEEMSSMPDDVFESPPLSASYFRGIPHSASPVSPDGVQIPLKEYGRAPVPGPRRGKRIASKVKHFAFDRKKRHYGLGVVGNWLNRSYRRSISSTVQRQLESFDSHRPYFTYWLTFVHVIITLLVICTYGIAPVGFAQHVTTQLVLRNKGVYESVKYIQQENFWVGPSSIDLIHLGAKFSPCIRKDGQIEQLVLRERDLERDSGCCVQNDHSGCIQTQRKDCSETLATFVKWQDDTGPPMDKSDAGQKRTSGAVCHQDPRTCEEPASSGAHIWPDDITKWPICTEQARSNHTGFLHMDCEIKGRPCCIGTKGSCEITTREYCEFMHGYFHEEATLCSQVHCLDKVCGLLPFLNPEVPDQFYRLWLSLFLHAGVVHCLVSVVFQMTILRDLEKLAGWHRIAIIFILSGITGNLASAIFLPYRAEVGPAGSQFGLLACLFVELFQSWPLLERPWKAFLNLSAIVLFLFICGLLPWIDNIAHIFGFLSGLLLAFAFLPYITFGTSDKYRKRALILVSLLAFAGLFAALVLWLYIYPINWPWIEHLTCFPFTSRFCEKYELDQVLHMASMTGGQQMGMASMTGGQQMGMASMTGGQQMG
Kind of assay: FACS on cells of the row L539A.

Assay [2] concerns the target T1, hiR2-FL-L539A-T7 (human iRhom2 full …). Description: FACS on cells of the row L539A, vs human iR2 wild type = 100%. The text has this:
In brief, immortalized MEF-DKO-hiR2-FL-G498A-T7, MEF-DKO-hiR2-FL-Q502R-T7, MEF-DKO-hiR2-FL-I509V-T7, MEF-DKO-hiR2-FL-Q512S-T7, MEF-DKO-hiR2-FL-R513E-T7, MEF-DKO-hiR2-FL-K514E-T7, MEF-DKO-hiR2-FL-D515E-T7, MEF-DKO-hiR2-FL-E518S-T7, MEF-DKO-hiR2-FL-T522V-T7, MEF-DKO-hiR2-FL-F523W-T7, MEF-DKO-hiR2-FL-Q527P-T7, MEF-DKO-hiR2-FL-D528I-T7, MEF-DKO-hiR2-FL-D529H-T7, MEF-DKO-hiR2-FL-T530P-T7, MEF-DKO-hiR2-FL-G531S-T7, MEF-DKO-hiR2-FL-P532A-T7, MEF-DKO-hiR2-FL-M534-T7, MEF-DKO-hiR2-FL-D535-T7, MEF-DKO-hiR2-FL-K536-T7, MEF-DKO-hiR2-FL-S537E-T7, MEF-DKO-hiR2-FL-D538L-T7, MEF-DKO-hiR2-FL-L539A-T7, MEF-DKO-hiR2-FL-Q541H-T7, MEF-DKO-hiR2-FL-T544Q-T7, MEF-DKO-hiR2-FL-S545F-T7, MEF-DKO-hiR2-FL-A547S-T7, MEF-DKO-hiR2-FL-T555V-T7, MEF-DKO-hiR2-FL-E557D-T7, MEF-DKO-hiR2-FL-A560S-T7 and MEF-DKO-hiR2-FL-S562E-T7 cells were harvested with 10 mM EDTA in PBS, washed and resuspended in FACS buffer (PBS, 3% FBS, 0.05% sodium azide), and seeded in Nunc U-bottom 96-well plates (Thermo Fisher Scientific, USA) at approximately 3×10⁵ cells per well. To pellet cells and remove supernatants, the plates were centrifuged at 1,500 rpm and 4° C. for 3 minutes. For primary staining, cells were resuspended in 100 μl per well of either FACS buffer alone (controls) or the purified antibodies 3, 5, 16, 22, 34, 42, 43, 44, 48, and 50 of the present disclosure at 3 μg/ml in FACS buffer and incubated on ice for 1 hour. Afterwards, plates were centrifuged at 1,500 rpm and 4° C. for 3 minutes and washed twice with 200 μl per well of FACS buffer. For secondary staining, cells were spun down and resuspended in 100 μl per well of PE-conjugated goat anti-mouse IgG F(ab′)2 detection fragment (Dianova, Germany) diluted 1:100 in FACS buffer. Protected from light, the cell suspensions were incubated on ice for 1 hour. Plates were then centrifuged at 1,500 rpm and 4° C. for 3 minutes and washed three times with 200 μl per well of FACS buffer. Finally, cells were resuspended in 150 μl per well of FACS buffer and analyzed using a BD Accuri™ C6 Plus flow cytometer (Becton Dickinson, Germany).

Numbering of substitutions follows the chain as printed.

B1: antibody 3 (antibody, V domains shown)
VH: QVTLKESGPGILQPSQTLSLTCSFSGFSLTTFAMGIGWVRQPSGKGLEWLAHIWWDGEKYNNPVLKSRLTISKDTSKNQVFLRIANVDTPDTATYYCARISSIYYIIDNWGQGTSVTVSS
VL: DIVLTQSPATLSVTPGHSVSLSCRASQSISNNLHWYQKKSHESPRLLIKYVSQSISGIPSRFSGSGSGTDFTLSINSVETEDFGMYFCQQSYNWPLTFGAGTKLELK
notes: Mouse IgG, kappa light chain; also called clone #3; purified antibody 3
As to B1, the binding result in assay [1] was “no binding (tested: 3 µg/ml)”. The “grade of loss of binding vs wild type” value in assay [2] was 3 grade (3 => 95% loss of binding vs wild type).

B2: antibody 43 (antibody, V domains shown)
VH: QVALKESGPGILQPSQTLSLTCSFSGFSLSTFGMGVGWIRQSSGKGLEWLANIWWDDDKYYNPALKSRLTISKDASKNQAFLKIANVDTADTATYYCARIGNYGSNYWYFDVWGTGTTVTVSS
VL: QIVLTQSPAIMSASPGERVTMTCSANSRISYMYWYQQKPGSSPRLLIYDTSNLASGVPVRFSGSGSGTSYSLTISRMEAEDAATYNCQQWSSYPLTFGAGTKLELK
notes: Mouse IgG, kappa light chain; also called clone #43
Consider B2, for which, in assay [1], the binding result is recorded as “no binding (tested: 3 µg/ml)”. For the same molecule, the “grade of loss of binding vs wild type” value in assay [2] is 3 grade (3 => 95% loss of binding vs wild type).

B3: antibody 44 (antibody, V domains shown)
VH: B2 VH with A3T, S42P, G44E, N52H, A75T, A80I, A85T, D91E, A98S
VL: QIVLTQSPAVMSASPGEKVTMTCTASSSVYYMYWYQQTPGSSPRLLIYDTSNLASGVPVRFSGSGSGTSYSLTISRMEAEDAATYYCQQWNTYPLTFGAGTKLELK
notes: Mouse IgG, kappa light chain; also called clone #44; m44
With B3, the binding result in assay [1] is “no binding (tested: 3 µg/ml)”. In addition, the “grade of loss of binding vs wild type” value in assay [2] was 3 grade (3 => 95% loss of binding vs wild type).

B4: antibody 42 (antibody, V domains shown)
VH: B2 VH with A3T, F24L, M34R, S42P, N52H, D58E, A75T, A80V, K83R, G101Q
VL: B2 VL with Q1L, R18K, S24G, N26T, Y33F, L45V, M77V, A82V, N86Y, S91N
notes: Mouse IgG, kappa light chain; also called clone #42; m42
In the case of B4, the binding result in assay [1] was “no binding (tested: 3 µg/ml)”. The “grade of loss of binding vs wild type” value in assay [2] was 3 grade (3 => 95% loss of binding vs wild type).

B5: antibody 5 (antibody, V domains shown)
VH: B2 VH with A3T, S42P, N52H, D58E, P63S, D74A, A75T, G101S, D111N
VL: QVVLTQSPALMSASPGEKVTMTCSAGSSVSCMYWYQQKPGSSPRVLIYDTSNLASGVPARFTGSGSGTSYSLTISRMEAEDAASYYCQQWNSYPLTFGAGTKLELK
notes: Mouse IgG, kappa light chain; also called clone #5; purified antibody 5
As to B5, in assay [1], the binding result is listed as “no binding (tested: 3 µg/ml)”. Moreover, the “grade of loss of binding vs wild type” value in assay [2] was 3 grade (3 => 95% loss of binding vs wild type).

B6: antibody 22 (antibody, V domains shown)
VH: B2 VH with A3T, S42P, N52H, D58E, P63S, D74A, A75T, A80V, G101S, D111N
VL: B5 VL with C31Y, S84T
notes: Mouse IgG, kappa light chain; also called clone #22; m22
On to B6, for which the binding result in assay [1] is “no binding (tested: 3 µg/ml)”. In addition, the “grade of loss of binding vs wild type” value in assay [2] is 3 grade (3 => 95% loss of binding vs wild type).

B7: antibody 34 (antibody, V domains shown)
VH: QVTLKESGPGILQPSQTLSLTCSFSGFSLSTFSLGVGWIRQSSGKGLEWLAHIWWDDEKYYNPALKSRLTISKDTSKNQVFLKIANVDAADTATYYCARAYYSKSYYALDYWGQGTSVTVSS
VL: DIQMTQSPSSLSASLGERVSLTCRASQEISGYLSWLQQKPDGTIKRLIYAASTLDSGVPKRFSGSRSGSDYSLAISSLESEDFADYYCLQYANFPFTFGSGTKLEIK
notes: Mouse IgG, kappa light chain; also called clone #34; m34
On to B7, for which the binding result in assay [1] is “no binding (tested: 3 µg/ml)”. Moreover, in assay [2], the “grade of loss of binding vs wild type” value was 3 grade (3 => 95% loss of binding vs wild type).
